Measured values published in paper PMC2878840.

Columns and labels:
[1] = confocal immunofluorescence, x-z sections; settings: glycan lost; control: wild type E-cadherin
[2] = anti-CNX Western blot normalised to actin; settings: glycan lost; control: mock-transfected cells
[3] = ZO-1 immunoprecipitation, Western blot; settings: glycan lost; control: wild type E-cadherin (E-cad-myc)
[4] = TER of confluent monolayers on Transwells; settings: glycan lost; control: wild type E-cadherin (E-cad-myc)
[5] = Western blot normalised to ZO-1 or claudin-1; settings: glycan lost; control: wild type E-cadherin (E-cad-myc)

B1: E-cadherin: V13 (protein)
parent chain: MGPWSRSLSALLLLLQVSSWLCQEPEPCHPGFDAESYTFTVPRRHLERGRVLGRVNFEDCTGRQRTAYFSLDTRFKVGTDGVITVKRPLRFHNPQIHFLVYAWDSTYRKFSTKVTLNTVGHHHRPPPHQASVSGIQAELLTFPNSSPGLRRQKRDWVIPPISCPENEKGPFPKNLVQIKSNKDKEGKVFYSITGQGADTPPVGVFIIERETGWLKVTEPLDRERIATYTLFSHAVSSNGNAVEDPMEILITVTDQNDNKPEFTQEVFKGSVMEGALPGTSVMEVTATDADDDVNTYNAAIAYTILSQDPELPDKNMFTINRNTGVISVVTTGLDRESFPTYTLVVQAADLQGEGLSTTATAVITVTDTNDNPPIFNPTTYKGQVPENEANVVITTLKVTDADAPNTPAWEAVYTILNDDGGQFVVTTNPVNNDGILKTAKGLDFEAKQQYILHVAVTNVVPFEVSLTTSTATVTVDVLDVNEAPIFVPPEKRVEVSEDFGVGQEITSYTAQEPDTFMEQKITYRIWRDTANWLEINPDTGAISTRAELDREDFEHVKNSTYTALIIATDNGSPVATGTGTLLLILSDVNDNAPIPEPRTIFFCERNPKPQVINIIDADLPPNTSPFTAELTHGASANWTIQYNDPTQESIILKPKMALEVGDYKINLKLMDNQNKDQVTTLEVSVCDCEGAAGVCRKAQPVEAGLQIPAILGILGGILALLILILLLLLFLRRRAVVKEPLLPPEDDTRDNVYYYDEEGGGEEDQDFDLSQLHRGLDARPEVTRNDVAPTLMSVPRYLPRPANPDEIGNFIDENLKAADTDPTAPPYDSLLVFDYEGSGSEAASLSSLNSSESDKDQDYDYLNEWGNRFKKLADMYGGGEDD
With B1 the “other: apical localisation of gp135 and ZO-1” value [1] was “increases”, the “other: calnexin expression (UPR marker)” value [2] was “no change” and the “other: claudin-1 in ZO-1 complexes” value [3] was “increases”. For the same protein, the “other: transepithelial resistance” value [4] was “increases” and the “other: Ser-phosphorylation of ZO-1 and claudin-1” value [5] was “increases”.
